How the values were obtained:
[1] = EDTA or EGTA resisting performance (residual enzyme activity); assay type: physicochemical; conditions: 0 to 100 mM EDTA or EGTA, pH 10, 30, 40 or 45° C., 30 minutes; FIGS. 1 and 2
Method: (§1) After 9.3 g of EDTA (product of Sigma Chemical Co., Ltd.) was dissolved in about 80 mL of deionized water, the resulting solution was adjusted to pH 8 with an about SN aqueous sodium hydroxide solution by using a pH meter. To the pH-adjusted solution, deionized water was added to give a total volume of 100 mL, whereby a 250 mM EDTA solution was prepared. The resulting solution was diluted with deionized water to prepare 10 to 100 mM EDTA solutions.
as §1, with “9.5” for “9.3”, “EGTA” for “EDTA”, “5N” for “SN”
In a test tube, 0.1 mL of the 10 mM EDTA solution, 0.2 mL of the 250 mM glycine sodium hydroxide buffer (pH 10) and 0.1 mL of deionized water were charged, followed by preliminary heating in a water bath of 45° C. for about 5 minutes. […] Thirty minutes later, a 0.1 mL portion of the resulting solution was added to 0.9 mL of the substrate solution preliminary heated in a water bath of 50° C. and the residual enzyme activity was measured in accordance with the amylase activity measuring method. […]

[2] = Effects of metal salts (inhibition ratio); assay type: biochemical; conditions: pH 10, 30° C., 30 minutes; for inhibition ratio by Mn2+: 1 mM Mn2+
Method: Each of them was treated at pH 10 and 30° C. for 30 minutes in the presence of various metal salts, whereby their effects were studied.

[3] = Resisting performance against citric acid or zeolite (residual enzyme activity); assay type: physicochemical; conditions: 0 to 0.5% trisodium citrate or synthetic zeolite A-3, pH 10, 40 or 45° C., 30 minutes; FIGS. 3 to 6
Method: To a 50 mM glycine sodium hydroxide buffer (pH 10) containing trisodium citrate dihydrate (guaranteed class product of Wako Pure Chemical Industries, Ltd.) or synthetic zeolite A-3 (product of Wako Pure Chemical Industries, Ltd.) having each of final concentrations of 0 to 0.5%, a purified enzyme properly diluted with a 10 mM glycine sodium hydroxide buffer (pH 10) was added, followed by treatment at each of predetermined temperatures (40° C. and 45° C.) for 30 minutes. The residual enzyme activity of the reaction mixture was measured in accordance with the amylase activity measuring method [with a 50 mM glycine sodium hydroxide buffer (pH 10)].

[4] = Specific activity: amylase activity measuring method and protein assay kit; assay type: biochemical; conditions: pH 10 glycine sodium hydroxide buffer, 50° C., 15 minutes, soluble starch as substrate
Method: In a test tube, 0.5 mL of the 1% aqueous solution of soluble starch, 0.2 mL of the 250 mM glycine sodium hydroxide buffer (pH 10) and 0.2 mL of deionized water (said mixture will hereinafter be called “substrate solution”) were charged, followed by preliminary heating for about 5 minutes in a water bath of 50° C. After preliminary heating, 0.1 ml of a properly diluted enzyme solution was added to the reaction mixture, followed by reaction at 50° C. for 15 minutes. After completion of the reaction, 1.0 mL of the DNS reagent was added to the reaction mixture, followed by color development by heating in boiling water for 5 minutes. Immediately after that, the solution was allowed to cool down in an ice-water bath. The resulting solution, after cooling, was added with 4.0 mL of deionized water, followed by mixing. The absorbance of the solution at 535 nm was then measured.
In a test tube, 0.9 mL of the substrate solution was charged, followed by the addition of 1.0 mL of the DNS reagent and then with 0.1 mL of an enzyme solution. The resulting mixture was heated in a boiling water for 5 minutes to cause color development. […] The absorbance of the solution at 535 nm was then measured.
In a test tube, 0.9 mL of the substrate solution was charged, followed by the addition of 1.0 mL of the DNS reagent and then with 0.1 mL of each of the glucose solutions for a calibration curve having various concentrations. […] The absorbance of the solution at 535 nm was then measured. On a graph, the glucose concentration (μmol/0.1 mL) was plotted as abscissa and the absorbance as ordinate and the slope of those linear plots was determined by the least square method. A conversion factor (F) was calculated in accordance with the following formula: Conversion Factor (F)=[1/(slope)]×[1/15]×[1000/0.1]
With the amount of the enzyme which formed reducing sugar equivalent to 1 μmol of glucose in one minute was defined as one unit (1U), the titer of the enzyme was calculated in accordance with the following formula: Activity of amylase (U/L)=[δ-absorbance]×[conversion factor (F)]×[dilution ratio] […]

| Molecule | resisting performance against EDTA or EGTA (residual activity) [1] | inhibition ratio by Cd2+ (K38 sentence) ([2]; 1 mM Cd2+) | inhibition ratio by Mn2+ [2] | inhibition ratio by Sr2+ ([2]; 1 mM Sr2+) | resisting performance against citric acid or zeolite (residual activity) [3] | Specific activity [4] |
| --- | --- | --- | --- | --- | --- | --- |
| K38: purified liquefying alkaline amylase obtained from strain Bacillus sp. KSM-K38 (FERM BP-6946); SEQ ID NO:4 (protein, listed as Bacillus sp.) MRRWVVAMLAVLFLFPSVVVADGLNGTMMQYYEWHLENDGQHWNRLHDDAAALSDAGITAIWIPPAYKGNSQADVGYGAYDLYDLGEFNQKGTVRTKYGTKAQLERAIGSLKSNDINVYGDVVMNHKMGADFTEAVQAVQVNPTNRWQDISGAYTIDAWTGFDFSGRNNAYSDFKWRWFHFNGVDWDQRYQENHIFRFANTNWNWRVDEENGNYDYLLGSNIDFSHPEVQDELKDWGSWFTDELDLDGYRLDAIKHIPFWYTSDWVRHQRNEADQDLFVVGEYWKDDVGALEFYLDEMNWEMSLFDVPLNYNFYRASQQGGSYDMRNILRGSLVEAHPMHAVTFVDNHDTQPGESLESWVADWFKPLAYATILTREGGYPNVFYGDYYGIPNDNISAKKDMIDELLDARQNYAYGTQHDYFDHWDVVGWTREGSSSRPNSGLATIMSNGPGGSKWMYVGRQNAGQTWTDLTGNNGASVTINGDGWGEFFTNGGSVSVYVNQ | not influenced by highly concentrated EDTA or EGTA | about 30% | about 75% | about 30% | influenced by neither citric acid nor zeolite | 3600 U/mg |
| Duramyl: amylase derived from Bacillus licheniformis, purified from a Novo product in granular form (protein, UniProt P06278 30-512, looked up) Alpha-amylase: ANLNGTLMQYFEWYMPNDGQHWKRLQNDSAYLAEHGITAVWIPPAYKGTSQADVGYGAYDLYDLGEFHQKGTVRTKYGTKGELQSAIKSLHSRDINVYGDVVINHKGGADATEDVTAVEVDPADRNRVISGEHRIKAWTHFHFPGRGSTYSDFKWHWYHFDGTDWDESRKLNRIYKFQGKAWDWEVSNENGNYDYLMYADIDYDHPDVAAEIKRWGTWYANELQLDGFRLDAVKHIKFSFLRDWVNHVREKTGKEMFTVAEYWQNDLGALENYLNKTNFNHSVFDVPLHYQFHAASTQGGGYDMRKLLNSTVVSKHPLKAVTFVDNHDTQPGQSLESTVQTWFKPLAYAFILTRESGYPQVFYGDMYGTKGDSQREIPALKHKIEPILKARKQYAYGAQHDYFDHHDIVGWTREGDSSVANSGLAALITDGPGGAKRMYVGRQNAGETWHDITGNRSEPVVINSEGWGEFHVNGGSVSIYVQR |  |  |  |  |  | 500 U/mg |
| K36: purified liquefying alkaline amylase obtained from strain Bacillus sp. KSM-K36 (FERM BP-6945); SEQ ID NO:2 (protein, listed as Bacillus sp.) MKRWVVAMLAVLFLFPSVVVADGLNGTMMQYYEWHLENDGQHWNRLHDDAEALSNAGITAIWIPPAYKGNSQADVGYGAYDLYDLGEFNQKGTVRTKYGTKAQLERAIGSLKSNDINVYGDVVMNHKLGADFTEAVQAVQVNPSNRWQDISGVYTIDAWTGFDFPGRNNAYSDFKWRWFHFNGVDWDQRYQENHLFRFANTNWNWRVDEENGNYDYLLGSNIDFSHPEVQEELKDWGSWFTDELDLDGYRLDAIKHIPFWYTSDWVRHQRSEADQDLFVVGEYWKDDVGALEFYLDEMNWEMSLFDVPLNYNFYRASKQGGSYDMRNILRGSLVEAHPIHAVTFVDNHDTQPGESLESWVADWFKPLAYATILTREGGYPNVFYGDYYGIPNDNISAKKDMIDELLDARQNYAYGTQHDYFDHWDIVGWTREGTSSRPNSGLATIMSNGPGGSKWMYVGQQHAGQTWTDLTGNHAASVTINGDGWGEFFTNGGSVSVYVNQ | not influenced by highly concentrated EDTA or EGTA |  | about 95% |  | influenced by neither citric acid nor zeolite | 4300 U/mg |

Reference: patent US6916645B2, “Amylases” (Kao Corporation, priority 1998, dated 2005)
